Test results reported in PMC4337903, “Simian Virus Large T Antigen Interacts with the N-Terminal Domain of the 70 kD Subunit of Replication Protein A in the Same Mode as Multiple DNA Damage Response Factors” (PLoS ONE, 2015).

Experiments:
[1] = biological target: RPA70N (aa 1-120 of RPA70) used for ITC and NMR (UniProt P27694); assay: ITC; 10 μl injections of 336 μM Tag(84-130) into 60 μM RPA70N in the cell; 25 mM Tris-Cl pH 7.5, 100 mM NaCl; single site model; average of three trials
[2] = biological target: T1, Simian virus 40 Large T-antigen (Tag), full length (Simian virus 40 (SV40), UniProt P03070 1-708); assay: pull-down; GST-RPA70N (WT or R41/43E) or GST on glutathione beads, purified full-length Tag as prey; 4°C, 30 mM HEPES KOH pH 7.8, 10 mM KCl, 7 mM MgCl2, 10 μM ZnCl2, 2% non-fat dry milk; washes with 75 mM KCl; blot with pAb101 and anti-GST; also without antibody or after pre-incubation of Tag with control non-immune IgG; conditions: both partners purified
T1 construct: SV40 Large T antigen, full length; The methods tell the removal of GST from full-length Tag for 'ITC and NMR studies'; for the pull-down the legend says only 'purified as described in Materials and Methods'; also called Large Tumor Antigen; full-length Tag; source: Rosetta 2 cells, GST-tagged, purified (glutathione agarose), treated with H3C PreScission protease

Sequence of Tag(84-130), GST removed (domain or fragment) (P03070 84-130 limits assumed): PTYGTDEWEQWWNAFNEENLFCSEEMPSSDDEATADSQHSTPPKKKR

| Molecule | Kd [1] [nM] | binding result [2] |
| --- | --- | --- |
| Tag(84-130), GST removed (domain or fragment) | 1280 | – |
| GST-RPA70N (N-terminal domain of the 70 kDa subunit of Replication Protein A, residues 1-120) (domain or fragment, UniProt P27694 1-120, looked up, also called GST-RPA70N WT; source: Rosetta 2 cells, purified (glutathione agarose)) MVGQLSEGAIAAIMQKGDTNIKPILQVINIRPITTGNSPPRYRLLMSDGLNTLSSFMLATQLNPLVEEEQLSSNCVCQIHRFIVNTLKDGRRVVILMELEVLKSAEAVGVKIGNPVPYNE | – | binds |
